# Where two headings read alike, the source gives them in different places.
# Experiments:
# EGFRvIII-mmh = EGFRvIII-mmh (Homo sapiens, UniProt P00533, DELINS30-297G); test: SPR (BIACORE) binding kinetics, mAb-capture format; conditions: 37° C., NB=no binding
# Protocol: (§1) Measurements were conducted on a T100 BIACORE™ instrument. […] In the receptor-capture format, either EGFRvIII-mFc or EGFR-mFc, was captured on the BIACORE™ chip and the respective antibodies flowed over. Kinetic association (ka) and dissociation (kd) rate constants were determined by processing and fitting the data to a 1:1 binding model using Scrubber 2.0 curve fitting software. Binding dissociation equilibrium constants (KD) and dissociative half-lives (t1/2) were calculated from the kinetic rate constants as: KD (M)=kd/ka; and t1/2 (min)=ln 2/(60*kd).
# EGFRvIII-mFc [1] = test: SPR (BIACORE) binding kinetics, mAb-capture format; parameters: species or system human; conditions: 37° C., NB=no binding
# EGFRvIII-mFc [2] = assay type: binding, human; conditions: 37° C., receptor-capture, EGFRvIII-mFc captured
# Protocol: as §1
# EGFR-mFc = EGFR-mFc (Homo sapiens, UniProt P00533); test: SPR (BIACORE) binding kinetics, receptor-capture format; conditions: 37° C., EGFR-mFc captured, NB=no binding
# Protocol: as §1
# HEK293 cells = test: FACS cell binding selectivity; assay type: cell-based; conditions: directly labeled (ALEXA FLUOR 488) antibodies, 10 μg/ml
# Protocol: To determine the specificity of the anti-EGFRvIII mAbs, their binding to HEK293, HEK293 cells expressing EGFRvIII (HEK293/EGFRvIII) and A431 cells, was analyzed by fluorescence activated cell sorting (FACS). HEK293/EGFRvIII cells were prepared by transfecting HEK293 cells with neomycin resistant DNA vectors constitutively expressing full-length hEGFRvIII (SEQ ID NO:147) using LIPOFECTAMINE™ 2000 transfection reagent (INVITROGEN™). At two days post-transfection, cells were placed under G418 selection for approximately two weeks. Populations positively expressing EGFRvIII were isolated via fluorescence activated cell sorting (FACS). The HEK293 cells expressing ˜3×10^6 copies of EGFRvIII per cell were used in the experiment. Briefly, the anti-EGFRvIII antibodies at 10 μg/ml were incubated with cells for 30 minutes at room temperature, washed, incubated with secondary antibody, i.e., phycoerythrin (PE)-labeled goat F(ab′)2 against human IgG (cat #109-116-170, Jackson ImmunoResearch Laboratories), followed by a final wash before FACS analysis. In another set of experiment, anti-EGFRvIII antibodies were directly conjugated via their lysine residues with the fluorescent dye, ALEXA FLUOR® 488 Dye (INVITROGEN™), thereby eliminating the step using the secondary antibody. […] Controls I, II, III, IV and V are described above. MFI: Mean Fluorescence Intensity.
# Sequence of EGFRvIII-mFc (as listed by the source): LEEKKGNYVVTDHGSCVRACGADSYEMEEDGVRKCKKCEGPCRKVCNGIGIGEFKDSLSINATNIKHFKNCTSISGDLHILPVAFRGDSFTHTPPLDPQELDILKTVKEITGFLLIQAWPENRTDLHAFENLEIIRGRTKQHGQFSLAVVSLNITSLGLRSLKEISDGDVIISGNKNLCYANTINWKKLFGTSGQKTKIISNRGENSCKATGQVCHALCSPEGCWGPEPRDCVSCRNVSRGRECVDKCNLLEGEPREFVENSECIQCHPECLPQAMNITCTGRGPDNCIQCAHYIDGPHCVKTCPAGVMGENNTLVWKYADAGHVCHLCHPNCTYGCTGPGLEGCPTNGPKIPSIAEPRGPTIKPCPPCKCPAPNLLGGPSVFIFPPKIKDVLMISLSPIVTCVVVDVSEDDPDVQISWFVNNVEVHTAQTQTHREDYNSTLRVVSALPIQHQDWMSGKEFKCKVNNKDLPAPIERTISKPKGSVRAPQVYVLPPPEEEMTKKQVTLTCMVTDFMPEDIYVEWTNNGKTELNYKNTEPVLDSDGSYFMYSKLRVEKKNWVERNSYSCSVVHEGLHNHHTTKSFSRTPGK
molecule,measurement,setting,value
"H1H1913N: human IgG1 Fc anti-EGFRvIII antibody with variable domains 1913; HCVR/LCVR SEQ ID NOs 130/138 (antibody, V domains shown, human IgG1 Fc) VH: QVQLQQWGAGLLKPSETLSLTCAVYGGSFSGDYWSWIRQSPGKGLEWIGEINHSGSTNYNPSLKSRVTISIDTSKNQFSLKLSSVTAADTAVYYCARGGGDYYYGMDVWGLGTTVTVSS VL: AIQMTQSPSSLSASVGDRVTITCRASQGIGNDLGWYQQKPGKAPNLLIYATSSLQSGVPSRFSGSGSGTDFTLTISSLQPEDFATYYCLQDYNYPWTFGQGTKVEIK",ka,EGFRvIII-mmh; analyte EGFRvIII-mmh (monomeric),163 M⁻¹ s⁻¹
same,kd,EGFRvIII-mmh; analyte EGFRvIII-mmh,0.00114 s⁻¹
same,ka,EGFRvIII-mFc [1]; analyte EGFRvIII-mFc (dimeric),14000 M⁻¹ s⁻¹
same,kd,EGFRvIII-mFc [1]; analyte EGFRvIII-mFc,0.000316 s⁻¹
same,Kd,EGFRvIII-mFc [2],0.0158 nM
same,ka,EGFRvIII-mFc [2],63000 M⁻¹ s⁻¹
same,ka,EGFR-mFc,5930 M⁻¹ s⁻¹
same,kd,EGFR-mFc,1e-06 s⁻¹
same,Parental HEK293 MFI,HEK293 cells,4801

# From patent US11608380B2, “Anti-EGFRvIII antibodies and uses thereof” (REGENERON PHARMACEUTICALS, INC., priority 2014, dated 2023)
